# Assay: soluble on expression in E. coli; label from the status in PepcDB or PDB records
row,Sequence,soluble on expression in E. coli
1,MSLSTDDTLWREFLQVWPLERLREMTLAEYTTAGDKDCFVYWLEFRLVDYGSIAGGSAFKFAIFSRKETGAREGDTSLAYDDRYGWYRRFGTSPEEAFQTIRGHVVAVAEAARDGRLDEIDNSPLGAAYRWKIAFHYQPLRNPSTPCVYVRKPLLHFLGLSAADTTTPQSELYQALARLRQADESIFVFSERLWKDWVADTPFVVKLSEGAIKHGYLPVNLISAPFPETMYGGKTPNEAADVAHFRTDTGLEFDTDLRVSSPGSARLRHRLGGYFEDIGAAAGDLITLTQDGDGTYLLSSKLAVHAIGPTASAATITARASVKEAAAVRPPLNQILFGPPGTGKTYEAIEKALEILDPSFLLQLGDDESNERRRALKRRYDELAKEGLVQFVTFHQSFSYENFVEGLSASSDPDTKQVRYEVEDGVFKELCESARTRLVRRSDDAPLELSGRRIWKLSLGDSITEGHIFEECMEKGLALMGFGNNADFSQCQSREDIQKMFAASGEPLSLGAYPITAIKTFVCQMKLGDLIVVSEGNLKFRAIGEITGDYQLLPRDSDTYSQARPVRWLRGYKPALPYGALMENRFSQMTVYELRAGSIDHDKFRELLKSECIATGADRPHVLIIDEINRGNVSRIFGELITLIEPSKRSGAAEALEVLLPYSKDPFSVPDNVYLIGTMNTADRSLAGLDIALRRRFDFVEMAPRPDKLTGVKVAEIDISAVLETMNRRIEVLLDREHRLGHAYFMSLENSNDLSRLSNIFRQQIIPLLQEYFFEDWQRIAWILNDHRKDERFRFIVPAPYSVDSLFGDTGQVAQDSKAWRMNEEAFHKPQSYLGIVGDGKEGHHHHHH,not soluble
2,MSLSTEPLASRMRPKNIDEIISQQHLVGPRGIIRRMVDTKKLTSMIFYGPPGIGKTSIAKAISGSTQYKFRQLNAVTNTKKDMQLVVEEAKMSGQVILLLDEIHRLDKAKQDFLLPHLENGKIVLIGATTSNPYHAINPAIRSRAQIFELYPLNDEDVRQALTRAIEDDENGLKTYQPKIDEDAMTYFSTQSQGDVRSALNALELAVLSADNDKDGYRHVTLQDAKDCLQKGAFVSDKDGDMHYDVMSAFQKSIRGSDVNAALHYLARLIEAGDLPTIVRRLLVISYEDIGLASPNAGQRTLAAIESAERLGLPEARIPLSQAVIELCLSPKSNSAMSAIDSALSDIRNGHVGQIPNHLKDGHYQGAKDLGRSIGYKYPHQYVNGYVSQQYLPDKLKNKIYYEPKTTSKSEQQLKEIYNNLLKEGHHHHHH,soluble
3,MSLSTHYHAHKPNVPIIMEDVFGWVREGNAFQVRVWLDDHEHDLNVGDDHAFSLLHWAAKGGHVAIAEMLLSRGARVNSTNMGDDTSLHLAAAHGHRQIVVKLLSRKADVNATNEHGMTPLHYACFWGYEQIAEDLISCGAAVNVCNKKGMTPLDVCQPMCKNTILEIAQEHGQSPNDRVPFKDTTWKGTKSRTRDATLSRYTGVDVSSLNLITKIAESHSGELWRGKWQGNDIVARILNVQEVTARISRDFQTEFPALRIFAHPNICAVLAAANQPPNLVIISQYMPFGSLYNVLHEQSSVVIDHGQAVRFALDIARGMSYLHSLDPMLLRFYLSSKHVVVDEELTAKLSMADTKFSFQEVGKAYSPAWMSPEALSRAPEDLNIRAADMWSFAILLWELNTREVPFSDLPPMECGMKIALEGLRVHIPPGIARNMNRLMNICMNEDPGRRPNFDQIIPILERMIL,not soluble
4,MSLSTIDLHVHSNYSDGIHPPADLVKMAAERGLVAIAIADHDTVDGIDEALIAGARLGVEVVPAVELSAEHGRYRDMHILGYHLDHRDPRLVDMLAEFRINREIRGRAIVDKINQRLADGRKPLLSYDEVLNLAEGAVGRPHIGRMLIERGYARNMEDAFRRYLIPCNVPKRYIPAGDAITEIRRAGGVAVLAHPITVSDDRQVLRGIVSELVALGLDGIEVFNNMCYKDDMLFLEFLCRESGLLMTGGSDFHGFEDDVEIGSGRGGLAVSHRLAEAVKNLAESRRITPPGSRTEGHHHHHH,soluble
5,MSLSTIGSMMSIYSEAGDFGNIFVTGRIAFSLKYEQQTQSLVVHVKECHQLAYADEAKKRSNPYVKTYLLPDKSRQGKRKTSIKRDTVNPLYDETLRYEIPESLLAQRTLQFSVWHHGRFGRNTFLGEAEIQMDSWKLDKKLDHCLPLHGKISAESPTGLPSHKGELVVSLKYIPASKTPVGGDRKKSKGGEGGELQVWIKEAKNLTAAKAGGTSDSFVKGYLLPMRNKASKRKTPVMKKTLNPHYNHTFVYNGVRLEDLQHMCLELTVWDREPLASNDFLGGVRLGVGTGISNGEVVDWMDSTGEEVSLWQKMRQYEGHHHHHH,not soluble
6,MSLSVAIRVKDLTKKYKLYQKRSERLANAFGKEKNIKEFYALKGVSFEISKGECVGIIGHNGAGKSTLLKLLTGVAFPTSGEIEINGRLASMLELGSGFNPELTGMENIYFNGSLNGLTKEEIDGKLKDILEFADIGNFIEQPVKNYSSGMFARLAFAVAINVDPDILIVDEILSVGDVGFQVKCMEKFNEFKKKGKTILYVSHGLGTVKKFCDRAIWLQKGEVVDDGNSVIVVERYYNLNFNPANIEQLKDHKSDIINSIAVKSNTKNVEYLEKLDLEVEYDLISNDLKDPNIVLEFRKTDYEPGTTRGNDQFVCGINSKDNIKNIPFNLGVNKLKVSLNKVNLVAGVYYIDFVLRDGEEEVYRKINGYSFTLNEGHHHHHH,soluble
7,MSLTARSVVLSVLLGAHPAWATASELIQLTADFGIKETTLRVALTRMVGAGDLVRSADGYRLSDRLLARQRRQDEAMRPRTRAWHGNWHMLIVTSIGTDARTRAALRTCMHHKRFGELREGVWMRPDNLDLDLESDVAARVRMLTARDEAPADLAGQLWDLSGWTEAGHRLLGDMAAATDMPGRFVVAAAMVRHLLTDPMLPAELLPADWPGAGLRAAYHDFATAMAKRRDATQLLEVTEGHHHHHH,soluble
8,MSLTDQKPVPVFDGHNDVLLRLWRSGNTSPETLLIEGDTVGHIDLPRARKGGLAGGLCAIYVPSPSMEKDANGDFSTPTEADALKATLGMAALLFRAEKQSAGALKVCRTAADIRSAMAEGAFASVFHIEGAEAIGDDLDALHVLHEAGLRTLGPVWSRPNIFAYGVPFRFPSTPDIGPGLTDTGKRLVKTCNELKIMVDLSHMNEQGFWDIAKISDAPLVASHSNAYALCNHSRNLTEGHHHHHH,soluble
9,MSLTDRIRRLRQESFDTQPSLSIERALIETEFYKENEGKYPIPILRALNFLEICKRKTIYIGEDELIVGERGPRPKAVSTFPELTCHSVEDLHVLNTRELQRYTISQEDIDTYEREVIPYWKGRTQRERIFNHVPKEWKEAYEVGMFTEFMEQRAPGHTSLDGKVYQHGMLDLKERIAHELKNLDFMNDPEATDKQEELTAMSISCDAAIIFAERHAELAEKMAGQETDPKRKEELKKIAEICRWVPAHAPRTYWEAIQMYWFVHLGTITELNGWDAMNPGHFDQHLAPFYEKDLEEGILTRAEAKELMSCFFIKVNNQTAPPKVGITAKESGTYNDFTNLNIGGIKRDGSNGVSEVSYIMLETVDDLHLLQPGSALHISVCTPERFLREGCKVIRKGYGYPSVFNPDTYVMELMRQGKTPEDAREGGCSGCIEVGAFGKEAYILTGYLNVPKILEVTLHNGTDPVSGKKVGLVTGDPCTFRSYEALYDAFLKQIHYFVDMKVRVSNYIDRMFAKYAPATFLSLFIDDCIAKGKDYYNCGPRYNTSYIQCTGLGTITDSLSVLKKHVFEERKFNMEQIIHATDTNFEGQEAMRQFILNRTPFFGNDDEYADRIAIQIFNDLYDAIEGKPNTKGECFHLNMLSTTCHVYFGKMMNATPNGREGHHHHHH,soluble
10,MSLTDSFTVRSIEGVCFRYPLATPVVTSFGKMLNRPAVFVRVVDEDGVEGWGEAWSNFPAPGAEHRARLINEVLAPGLVGRKLENPAQAFEVLSKGTEVLALQCGEPGPFAQAISGIDLALWDLFARRRNLPLWRLLGGQSSKIKVYASGINPGGAAQTAEAALKRGHRALKLKVGFGAETDIANLSALLTIVGAGMLAADANQGWSVDQALEMLPRLSEFNLRWLEEPIRADRPREEWRKLRANAKMPIAAGENISSVEDFEAALGDDVLGVIQPDIAKWGGLTVCVELARQILRVGKTFCPHYLGGGIGLLASAHLLAAVGRDGWLEVDANDNPLRDLFCGPVADVREGTIELNQNPGLGIVPDLSAIERYRSIEGHHHHHH,not soluble
11,MSLTFELYSGATFFRSRSAATKKVRDMQKERLKYVQEVYKVLATYVNFPKVCLPELIEKSIYEITEEEIVKKAEELRKIWGLDLISPVPNLIQLAEQNGVIISEANMSNPTLDAVSRWMIGRPFIMLTDNHESAVRRRFNVAHELGHILLHNGVESIHEYSQTELKNIIEYQANLFAAHFLLPSAAFSDSLLSISLEYYIDLKKYWKVSLQSMIQKIYTLALINDDQRLYLNKRIAKNKWKTKEPYDEQLTIEQPEVFQKVYHMILEHQVIPASQLNQAFKLPKEEIEKILGTAIQTEQDKTEIVLELLRSNKEGHHHHHH,soluble
12,MSLTFSILAHDPETGAIGGAAATGSLCVGGWVLRGDLNAGMSASQGAAPSTFWGEEVLQHLRDGSHPEDAVNHVTSQDSGRAYRQLAAMDLLGNAAAFTGSENQDIKGSVTFASGIASGNMLGDNSVLGAMTEAFVASDLTFERRLLAALIAAEGAGSDFRGLLSAAMLVLHPDRPPVTLRIDYHPDNPIGALEQLYQKATTGDYADWARQVPVLSDKERILDEGHHHHHH,soluble
13,MSLTGLFEPIAPQAPLAERLRPKSLDEVVGQRHLLGEGKPLRLAFTSGKLPSMILWGPPGVGKTTLARLIANTADAEFIPLSAVLAGIKDIREAVERAEHTLQQSGRRTILFVDEVHRFNKGQQDAFLPFVESGLITFIGATTENPSFEVNSALLSRAQVFVLNALSEDELKQLLERGKQEMQLDIPLTPEVVEQVLGYADGDARRLLNFVEGLFNAALTAGVTKIDAEFLQSTMASKLRRFDKGGEAFYDQISALHKSVRGSNPDAALYWFLRMLDGGADPLYLGRRIVRMAVEDIGIADPRAQTMALEACQIYERLGSPEGELALSNAVIYLAVAAKSNAAYMAYNQAKAFVASDKSRPVPLHLRNAPTKLMKDLNYGKEYRYAHNEPGAYAAGEDYFPDGLEAIQFYVPTQRGLEGKISEKMAHLRALDEEARSKEGHHHHHH,soluble
14,MSLTGMLKRKVIVVSGVGPGLGTTLAHRCARDGADLVLAARSAERLDDVAKQIIDTGRRAVAVRTDITDDDDVSNLVQATLAAYGKADVLINNAFRVPSMKPLAGTTFEHIRDAIELSALGTLRLIQAFTPALAQSHGAIVNVNSMVIRHSQPKYGTYKMAKSVLLAMSHSLATELGEQGIRVNSVAPGYIWGDTLKSYFDHQAGKYGTTVDQIYQATAANSDLKRLPTEDEVASAILFLASDLASGITGQTLDVNCGEYHTEGHHHHHH,soluble
15,MSLTGRAVIGVIGNAHLVDNRFAVQHVGERNLRAVAEVAGALPLMFGGSSEFAQIEDLLEVVDGILLTGGRANVHPTYFKTAPNPRHEPYDQPRDELALALVRTCVERGVPLFGICRGFQEMNVAYGGSLHPEIRELPGRMNHRMPRLENGEIHPDPTVVFADRHDVQLTSDGVFARLLGRDLIRVNSLHGQGILEPGPRIVIEGVAEDGTIEAIRIADAPGFALGVQWHAEYDPQVNPINRALFVAFGEAVSAYRTARKRPAALRRSEGHHHHHH,soluble
16,MSLTGTDFHVGIVGLGSMGMGAARSCLRAGLSTWGADLNPQACANLLAEGACGAAASAREFAGVVDALVILVVNAAQVRQVLFGEDGVAHLMKPGSAVMVSSTISSADAQEIAAALTALNLNMLDAPVSGGAVKAAQGEMTVMASGSEAAFTRLKPVLDAVASNVYRISDTPGAGSTVKIIHQLLAGVHIAAAAEAMALAARAGIPLDVMYDVVTHAAGNSWMFENRMQHVVDGDYTPRSAVDIFVKDLGLVADTAKALRFPLPLASTALNMFTSASNAGYGKEDDSAVIKIFSGITLPGVTPEEGHHHHHH,soluble
17,MSLTIGIWILGDQLWSGQTALKSHQGDRSQVPVLLIESAEFARQRPYHRQKLVLVWSAMRHFAEDLRAEGWSVTYEIAADFLTPLHHWLKTQGVSHLQVMAPGDRPFEAWLKSLTLPCELTLLPNNHFLWSREDFSAWAGDRKRLLLEDFYRAGRKRWQILMVDDQPVGGRWNFDQDNRKPAKKNLSPPKPLSFPPDDITQQVIERIEQLNLPGYGQLSGFQWGEGHHHHHH,soluble
